B1: PBXIP1 (parent)
chain: FGEDGIFRHDRLRFRDFVDALEDS

Variants of: B1
Assay: protein stability index of a GFP-peptide fusion (GPS, HEK-293T) (PSI 1-6); higher = more stable
Details: c terminus: a fixed tail appended
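Also: lentivirally expressed fusions sorted by FACS into six bins by GFP to DsRed ratio, PSI derived from sequencing read proportions per bin multiplied by bin number.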

| Variant | protein stability index |
| --- | --- |
| FGEDGNFRHDRLRFRDFVDALEDS | 3.46 |
| FGEDGRFRHDRLRFRDFVDALEDS | 3.72 |
| FGEDGTFRHDRLRFRDFVDALEDS | 2.95 |
| FGEDGMFRHDRLRFRDFVDALEDS | 1.97 |
| FGEDGYFRHDRLRFRDFVDALEDS | 2.24 |
| FGEDGQFRHDRLRFRDFVDALEDS | 3.86 |
| FGEDGSFRHDRLRFRDFVDALEDS | 2.74 |
| FGEDGLFRHDRLRFRDFVDALEDS | 2.3 |
| FGEDGKFRHDRLRFRDFVDALEDS | 2.7 |
| FGEDGPFRHDRLRFRDFVDALEDS | 3.18 |
| FGEDGVFRHDRLRFRDFVDALEDS | 2.76 |
| FGEDGWFRHDRLRFRDFVDALEDS | 1.96 |
| FGEDGIFREDRLRFRDFVDALEDS | 3.5 |
| FGEDGIFRWDRLRFRDFVDALEDS | 2.04 |
| FGEDGIFRTDRLRFRDFVDALEDS | 2.4 |
| FGEDGIFRQDRLRFRDFVDALEDS | 2.42 |
| FGEDGIFRDDRLRFRDFVDALEDS | 3.76 |
| FGEDGIFRFDRLRFRDFVDALEDS | 2.26 |
| FGEDGIFRRDRLRFRDFVDALEDS | 2.39 |
| FGEDGIFRIDRLRFRDFVDALEDS | 2.41 |
| FGEDGIFRNDRLRFRDFVDALEDS | 3.28 |
| FGEDGIFRVDRLRFRDFVDALEDS | 2.82 |
| FGEDGIFRPDRLRFRDFVDALEDS | 2.88 |
| FGEDGIFRSDRLRFRDFVDALEDS | 2.79 |

| Variant | protein stability index |
| --- | --- |
| FGEDGIFRLDRLRFRDFVDALEDS | 2.4 |
| FGEDGIFRKDRLRFRDFVDALEDS | 2.08 |
| FGEDGIFRCDRLRFRDFVDALEDS | 2.47 |
| FGEDGIFRYDRLRFRDFVDALEDS | 2.46 |
| FGEDGIFRMDRLRFRDFVDALEDS | 2.73 |
| FGEDGIFRGDRLRFRDFVDALEDS | 3.19 |
| FGEDGIFRADRLRFRDFVDALEDS | 2.84 |
| FGEDGITRHDRLRFRDFVDALEDS | 2.71 |
| FGEDGIARHDRLRFRDFVDALEDS | 3.42 |
| FGEDGIKRHDRLRFRDFVDALEDS | 3.38 |
| FGEDGIHRHDRLRFRDFVDALEDS | 3.91 |
| FGEDGIRRHDRLRFRDFVDALEDS | 2.84 |
| FGEDGIDRHDRLRFRDFVDALEDS | 4.33 |
| FGEDGILRHDRLRFRDFVDALEDS | 3.13 |
| FGEDGISRHDRLRFRDFVDALEDS | 2.97 |
| FGEDGIYRHDRLRFRDFVDALEDS | 2.98 |
| FGEDGIGRHDRLRFRDFVDALEDS | 3.7 |
| FGEDGIMRHDRLRFRDFVDALEDS | 4.07 |
| FGEDGIVRHDRLRFRDFVDALEDS | 3.72 |
| FGEDGIIRHDRLRFRDFVDALEDS | 3.51 |
| FGEDGIQRHDRLRFRDFVDALEDS | 3.36 |
| FGEDGIPRHDRLRFRDFVDALEDS | 3.88 |
| FGEDGIWRHDRLRFRDFVDALEDS | 1.95 |
| FGEDGINRHDRLRFRDFVDALEDS | 4.02 |

| Variant | protein stability index |
| --- | --- |
| FGEDGICRHDRLRFRDFVDALEDS | 2.95 |
| FGEDGIERHDRLRFRDFVDALEDS | 4.84 |
| FGEDGIFRHDELRFRDFVDALEDS | 3.36 |
| FGEDGIFRHDDLRFRDFVDALEDS | 3.95 |
| FGEDGIFRHDALRFRDFVDALEDS | 2.57 |
| FGEDGIFRHDCLRFRDFVDALEDS | 2.73 |
| FGEDGIFRHDFLRFRDFVDALEDS | 2.5 |
| FGEDGIFRHDGLRFRDFVDALEDS | 3.12 |
| FGEDGIFRHHRLRFRDFVDALEDS | 2.39 |
| FGEDGIFRHSRLRFRDFVDALEDS | 2.06 |
| FGEDGIFRHCRLRFRDFVDALEDS | 1.85 |
| FGEDGIFRHNRLRFRDFVDALEDS | 2.83 |
| FGEDGIFRHVRLRFRDFVDALEDS | 1.52 |
| FGEDGIFRHIRLRFRDFVDALEDS | 1.67 |
| FGEDGIFRHGRLRFRDFVDALEDS | 2.33 |
| FGEDGIFRHQRLRFRDFVDALEDS | 1.86 |
| FGEDGIFRHKRLRFRDFVDALEDS | 2.04 |
| FGEDGIFRHFRLRFRDFVDALEDS | 2.16 |
| FGEDGIFRHYRLRFRDFVDALEDS | 1.79 |
| FGEDGIFRHLRLRFRDFVDALEDS | 2.16 |
| FGEDGIFRHERLRFRDFVDALEDS | 2.63 |
| FGEDGIFRHWRLRFRDFVDALEDS | 1.74 |
| FGEDGIFRHRRLRFRDFVDALEDS | 2.15 |
| FGEDGIFRHMRLRFRDFVDALEDS | 2.19 |

| Variant | protein stability index |
| --- | --- |
| FGEDGIFRHPRLRFRDFVDALEDS | 1.85 |
| FGEDGIFRHARLRFRDFVDALEDS | 1.96 |
| FGEDGIFRHTRLRFRDFVDALEDS | 2.07 |
| FGEDGIFDHDRLRFRDFVDALEDS | 3.74 |
| FGEDGIFVHDRLRFRDFVDALEDS | 2.93 |
| FGEDGIFAHDRLRFRDFVDALEDS | 3.29 |
| FGEDGIFEHDRLRFRDFVDALEDS | 4.23 |
| FGEDGIFGHDRLRFRDFVDALEDS | 2.93 |
| FGEDGIFIHDRLRFRDFVDALEDS | 3.09 |
| FGEDGIFSHDRLRFRDFVDALEDS | 2.85 |
| FGEDGIFFHDRLRFRDFVDALEDS | 1.95 |
| FGEDGIFYHDRLRFRDFVDALEDS | 2.46 |
| FGEDGIFLHDRLRFRDFVDALEDS | 2.55 |
| FGEDGIFNHDRLRFRDFVDALEDS | 3.16 |
| FGEDGIFHHDRLRFRDFVDALEDS | 2.65 |
| FGEDGIFCHDRLRFRDFVDALEDS | 2.51 |
| FGEDGIFPHDRLRFRDFVDALEDS | 3.8 |
| FGEDGIFKHDRLRFRDFVDALEDS | 2.23 |
| FGEDGIFMHDRLRFRDFVDALEDS | 3.06 |
| FGEDGIFTHDRLRFRDFVDALEDS | 2.48 |
| FGEDGIFQHDRLRFRDFVDALEDS | 2.97 |
| FGEDGIFWHDRLRFRDFVDALEDS | 2.05 |

Reference: the supplement of paper PMC10567573
